The target of assay [1] is somatostatin receptors on AR42J cells (rat). The assay is described as follows: apparent IC50, competition with 111In(DTPA-octreotide) on AR42J cells, 3 h at RT.
Assay [2] addresses receptor for bombesin analogues (target not named where the EC50 values are printed) (UniProt P30550). The assay is described as follows: assay and target not described at this place.
Assay [3] has as its target gastrin-releasing peptide receptor on PC-3 cells (UniProt P30550). The assay is described as follows: competition with 125I-BBN on PC-3 cells, inhibitor 250 to 2 nM.

somatostatin receptors on AR42J cells (rat), sequence (P30680 whole entry): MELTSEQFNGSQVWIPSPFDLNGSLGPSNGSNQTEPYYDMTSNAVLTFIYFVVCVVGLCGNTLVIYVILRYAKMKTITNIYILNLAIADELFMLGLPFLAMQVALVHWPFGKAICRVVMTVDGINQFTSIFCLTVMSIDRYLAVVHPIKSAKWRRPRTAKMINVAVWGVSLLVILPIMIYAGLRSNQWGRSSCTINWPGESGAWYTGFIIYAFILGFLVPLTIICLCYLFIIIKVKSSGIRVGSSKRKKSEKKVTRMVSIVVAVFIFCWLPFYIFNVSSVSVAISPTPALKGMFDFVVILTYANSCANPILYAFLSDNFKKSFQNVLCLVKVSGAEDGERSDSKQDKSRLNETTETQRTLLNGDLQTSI
gastrin-releasing peptide receptor on PC-3 cells, sequence (P30550 whole entry): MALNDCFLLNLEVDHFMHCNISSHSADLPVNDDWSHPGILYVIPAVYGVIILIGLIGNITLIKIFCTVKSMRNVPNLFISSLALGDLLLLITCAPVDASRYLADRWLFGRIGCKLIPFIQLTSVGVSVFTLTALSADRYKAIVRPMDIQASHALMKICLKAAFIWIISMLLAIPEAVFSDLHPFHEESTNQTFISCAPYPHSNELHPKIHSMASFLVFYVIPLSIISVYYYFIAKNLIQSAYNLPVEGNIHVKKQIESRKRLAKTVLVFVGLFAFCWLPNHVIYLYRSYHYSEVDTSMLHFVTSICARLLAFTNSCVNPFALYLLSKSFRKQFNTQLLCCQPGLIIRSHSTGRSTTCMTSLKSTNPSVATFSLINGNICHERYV
receptor for bombesin analogues (target not named where the EC50 values are printed), sequence (P30550 whole entry): as above

A word on the IC50: it is the midpoint of a concentration-inhibition curve. With “Al^19F(IMP466), IMP466 = NOTA-D-Phe-Cys-Phe-D-Trp-Lys-Thr-Cys-Throl (peptide)”, in assay [1], the IC50 was determined as 3.6 nM.

Turning to “^69Ga(IMP466), IMP466 = NOTA-D-Phe-Cys-Phe-D-Trp-Lys-Thr-Cys-Throl (peptide)”, the half-maximal inhibitory concentration (IC50) in assay [1] worked out at 13 nM.

For ^115In(DTPA-octreotide) (peptide), the concentration for half-maximal inhibition (IC50) in assay [1] stood at 6.3 nM.

Broadly, the EC50 is the concentration needed to bring the measured effect to its halfway point. High values mean a less potent agent, low ones a more potent agent. In turn, ^125I-Bombesin (Perkin-Elmer) (peptide) came in with a 50% effective concentration (EC50) in assay [2] of 59 nM.

In assay [3], “commercially available BBN peptide (BBN positive control)” showed a 50% inhibitory concentration (IC50) of 24.4 nM.

Values taken from patent US20140017168A1.
